Data as given in the Human Domainome abundance scans (Beltran et al. 2025).
± gives the uncertainty stated by the source.

B1: RUN and FYVE domain-containing protein 1, residues 639 to 698; numbered along this chain, Q96T51 (parent)
chain: WLKDDEATHCRQCEKEFSISRRKHHCRNCGHIFCNTCSSNELALPSYPKPVRVCDSCHTL

Variants of: B1
Assay: abundance fitness (aPCA) (normalised: wild type 0, dead -1); higher = more abundant; growth selection in yeast, the domain comes from the species named
Conditions: Homo sapiens

Row | Variant | abundance fitness
1 | WLKDDEATICRQCEKEFSISRRKHHCRNCGHIFCNTCSSNELALPSYPKPVRVCDSCHTL [H9I] | -0.216 ± 0.07
2 | WLKDDEATHCRQCEKPFSISRRKHHCRNCGHIFCNTCSSNELALPSYPKPVRVCDSCHTL [E16P] | -0.195 ± 0.055
3 | WLKDDEATHCRQCEKDFSISRRKHHCRNCGHIFCNTCSSNELALPSYPKPVRVCDSCHTL [E16D] | -0.123 ± 0.074
4 | WLKDDEATHCRQCEKEFSISRRKHHCRNCGHIFCNTCSSNELASPSYPKPVRVCDSCHTL [L44S] | -0.454 ± 0.053
5 | WLKDDEATHCRQCEKEFSISRRKHHCRNCGHIFCNTCSSNELATPSYPKPVRVCDSCHTL [L44T] | -0.127 ± 0.072
6 | WLKDDEATHCRQCEKEFSISRRKHHCRNCGHIFCNTCSSNELAPPSYPKPVRVCDSCHTL [L44P] | -0.326 ± 0.08
7 | WLKDDEATHCRQCEKEASISRRKHHCRNCGHIFCNTCSSNELALPSYPKPVRVCDSCHTL [F17A] | -0.927 ± 0.078
8 | WLKDDEATHCRQCEKEISISRRKHHCRNCGHIFCNTCSSNELALPSYPKPVRVCDSCHTL [F17I] | -0.397 ± 0.12
9 | WLKDDEATHCRQCEKEGSISRRKHHCRNCGHIFCNTCSSNELALPSYPKPVRVCDSCHTL [F17G] | -0.793 ± 0.052
10 | WLKDDEATHCRQCEKEFSISDRKHHCRNCGHIFCNTCSSNELALPSYPKPVRVCDSCHTL [R21D] | -1.25 ± 0.24
11 | WLKDDEATHCRQCEKEFSISRRKHHCRNCGHIFCNTCISNELALPSYPKPVRVCDSCHTL [S38I] | -0.38 ± 0.056
12 | WLKDDEATHCRQCEKEFSISRRKHHCRNCGHIFCNTCPSNELALPSYPKPVRVCDSCHTL [S38P] | -0.727 ± 0.1
13 | WLKDDEATHCRQCEKEFSISRRKHHCRNCGHIFCNTCTSNELALPSYPKPVRVCDSCHTL [S38T] | -0.057 ± 0.047
14 | WLKDDEATHCRQCMKEFSISRRKHHCRNCGHIFCNTCSSNELALPSYPKPVRVCDSCHTL [E14M] | -0.212 ± 0.053
15 | WLKDDEATHCRQCEKEFSISRRKHHCRNCGHIFCNTCSSNELALPSYPKPVRVYDSCHTL [C54Y] | -0.845 ± 0.18
16 | WLKDDEATHCRQCEKEFSISRRKHHCRNCGHIFCNTCSSNELALPSYPKPVRVCDSCCTL [H58C] | -0.365 ± 0.054
17 | WLKDDEATHCRQCEKEFSISRRKHHCRNCGHIFCNTCSSNELALPSYPKPVRVCDSCNTL [H58N] | -0.242 ± 0.063
18 | WLKDDEATHCRQCEKEFSISRRKHHCRNCGHIFCNTCSSNERALPSYPKPVRVCDSCHTL [L42R] | 0.227 ± 0.035
19 | WLKDDEATHCRQCEKEFSKSRRKHHCRNCGHIFCNTCSSNELALPSYPKPVRVCDSCHTL [I19K] | 0.073 ± 0.079
20 | WLKDDEATHCRQCEKEFSPSRRKHHCRNCGHIFCNTCSSNELALPSYPKPVRVCDSCHTL [I19P] | -0.034 ± 0.045
21 | WLKDDEATHCRQCEKEFSISRRKHHCRNCGHIFCNTCSSDELALPSYPKPVRVCDSCHTL [N40D] | -0.382 ± 0.059
22 | WLKDDEATHCRQCEKEFSISRRHHHCRNCGHIFCNTCSSNELALPSYPKPVRVCDSCHTL [K23H] | -0.326 ± 0.077

Row | Variant | abundance fitness
23 | WLKDDEATHCRHCEKEFSISRRKHHCRNCGHIFCNTCSSNELALPSYPKPVRVCDSCHTL [Q12H] | -0.27 ± 0.072
24 | WLKDDEATHCRKCEKEFSISRRKHHCRNCGHIFCNTCSSNELALPSYPKPVRVCDSCHTL [Q12K] | -0.449 ± 0.064
25 | WLKDDEATHCRQCEKEFSISRRKHHCRNCGHIFCNPCSSNELALPSYPKPVRVCDSCHTL [T36P] | 0.202 ± 0.048
26 | WLKDDEATHCRQCEKEFSISRRKHHCRNCGHIFCNVCSSNELALPSYPKPVRVCDSCHTL [T36V] | 0.342 ± 0.029
27 | WLKDDEATHCRQCEKEFSISRRKHHCRNCGHIFCNHCSSNELALPSYPKPVRVCDSCHTL [T36H] | 0.287 ± 0.075
28 | ELKDDEATHCRQCEKEFSISRRKHHCRNCGHIFCNTCSSNELALPSYPKPVRVCDSCHTL [W1E] | -0.138 ± 0.1
29 | GLKDDEATHCRQCEKEFSISRRKHHCRNCGHIFCNTCSSNELALPSYPKPVRVCDSCHTL [W1G] | 0.131 ± 0.067
30 | ALKDDEATHCRQCEKEFSISRRKHHCRNCGHIFCNTCSSNELALPSYPKPVRVCDSCHTL [W1A] | -0.014 ± 0.17
31 | VLKDDEATHCRQCEKEFSISRRKHHCRNCGHIFCNTCSSNELALPSYPKPVRVCDSCHTL [W1V] | -0.005 ± 0.055
32 | WLKDDEATHCRQQEKEFSISRRKHHCRNCGHIFCNTCSSNELALPSYPKPVRVCDSCHTL [C13Q] | -0.806 ± 0.086
33 | WLKDDEATHCRQCEKEFSISRRKHHCRNCAHIFCNTCSSNELALPSYPKPVRVCDSCHTL [G30A] | -0.392 ± 0.072
34 | WLKDDEATHCRQCEKEFSISRRKHHCRNCGHCFCNTCSSNELALPSYPKPVRVCDSCHTL [I32C] | -0.105 ± 0.059
35 | WLKDDEATHCRQCEKEFSISRQKHHCRNCGHIFCNTCSSNELALPSYPKPVRVCDSCHTL [R22Q] | -0.1 ± 0.048
36 | WLKDDEATHCRQCEKEFSISRRKHHCRNCGHIFCNTCSSNKLALPSYPKPVRVCDSCHTL [E41K] | -0.038 ± 0.059
37 | WLKDDEATHCRQCEKEFSISRRKHHCRNCGHIFCNTCSSNSLALPSYPKPVRVCDSCHTL [E41S] | -0.155 ± 0.032
38 | WLKDDEATHCRQCEKEFSISRRKHHCRNCGHIFCNTCSSNGLALPSYPKPVRVCDSCHTL [E41G] | -0.522 ± 0.064
39 | WLKDDEATHCRQCEKEFSISRRKHHCRNCGHIFCNTCSSNMLALPSYPKPVRVCDSCHTL [E41M] | -0.134 ± 0.052
40 | WLKDDEATHCRQCEKEFSISRRKHHCRNCGHIFCNTCSSNELALPSYAKPVRVCDSCHTL [P48A] | -0.167 ± 0.047
41 | WLKDDEATHCRQCEKEFSISRRKHHCRNCGHIFCNTCSSNELALPSYFKPVRVCDSCHTL [P48F] | -0.818 ± 0.12
42 | WLKDDESTHCRQCEKEFSISRRKHHCRNCGHIFCNTCSSNELALPSYPKPVRVCDSCHTL [A7S] | 0.092 ± 0.033
43 | WLKDDEATHCRQCEKEFSISRRKHHCRNCGHIFVNTCSSNELALPSYPKPVRVCDSCHTL [C34V] | -0.496 ± 0.055
44 | WLKDDEATHCRQCEKEFSISRRKHHCRNCGHIFYNTCSSNELALPSYPKPVRVCDSCHTL [C34Y] | -0.682 ± 0.086
